Measured values from patent US20130058934A1.

Key:
[1] = molecular target: cynomolgus LRP6 (cynomolgus); experiment: FACS on HEK293T/17 cells transiently transfected with cynomolgus LRP6
human LRP6 (human) = human LRP6 (human) (UniProt O75581)
Chain of human LRP6 (human) (O75581 20-1613): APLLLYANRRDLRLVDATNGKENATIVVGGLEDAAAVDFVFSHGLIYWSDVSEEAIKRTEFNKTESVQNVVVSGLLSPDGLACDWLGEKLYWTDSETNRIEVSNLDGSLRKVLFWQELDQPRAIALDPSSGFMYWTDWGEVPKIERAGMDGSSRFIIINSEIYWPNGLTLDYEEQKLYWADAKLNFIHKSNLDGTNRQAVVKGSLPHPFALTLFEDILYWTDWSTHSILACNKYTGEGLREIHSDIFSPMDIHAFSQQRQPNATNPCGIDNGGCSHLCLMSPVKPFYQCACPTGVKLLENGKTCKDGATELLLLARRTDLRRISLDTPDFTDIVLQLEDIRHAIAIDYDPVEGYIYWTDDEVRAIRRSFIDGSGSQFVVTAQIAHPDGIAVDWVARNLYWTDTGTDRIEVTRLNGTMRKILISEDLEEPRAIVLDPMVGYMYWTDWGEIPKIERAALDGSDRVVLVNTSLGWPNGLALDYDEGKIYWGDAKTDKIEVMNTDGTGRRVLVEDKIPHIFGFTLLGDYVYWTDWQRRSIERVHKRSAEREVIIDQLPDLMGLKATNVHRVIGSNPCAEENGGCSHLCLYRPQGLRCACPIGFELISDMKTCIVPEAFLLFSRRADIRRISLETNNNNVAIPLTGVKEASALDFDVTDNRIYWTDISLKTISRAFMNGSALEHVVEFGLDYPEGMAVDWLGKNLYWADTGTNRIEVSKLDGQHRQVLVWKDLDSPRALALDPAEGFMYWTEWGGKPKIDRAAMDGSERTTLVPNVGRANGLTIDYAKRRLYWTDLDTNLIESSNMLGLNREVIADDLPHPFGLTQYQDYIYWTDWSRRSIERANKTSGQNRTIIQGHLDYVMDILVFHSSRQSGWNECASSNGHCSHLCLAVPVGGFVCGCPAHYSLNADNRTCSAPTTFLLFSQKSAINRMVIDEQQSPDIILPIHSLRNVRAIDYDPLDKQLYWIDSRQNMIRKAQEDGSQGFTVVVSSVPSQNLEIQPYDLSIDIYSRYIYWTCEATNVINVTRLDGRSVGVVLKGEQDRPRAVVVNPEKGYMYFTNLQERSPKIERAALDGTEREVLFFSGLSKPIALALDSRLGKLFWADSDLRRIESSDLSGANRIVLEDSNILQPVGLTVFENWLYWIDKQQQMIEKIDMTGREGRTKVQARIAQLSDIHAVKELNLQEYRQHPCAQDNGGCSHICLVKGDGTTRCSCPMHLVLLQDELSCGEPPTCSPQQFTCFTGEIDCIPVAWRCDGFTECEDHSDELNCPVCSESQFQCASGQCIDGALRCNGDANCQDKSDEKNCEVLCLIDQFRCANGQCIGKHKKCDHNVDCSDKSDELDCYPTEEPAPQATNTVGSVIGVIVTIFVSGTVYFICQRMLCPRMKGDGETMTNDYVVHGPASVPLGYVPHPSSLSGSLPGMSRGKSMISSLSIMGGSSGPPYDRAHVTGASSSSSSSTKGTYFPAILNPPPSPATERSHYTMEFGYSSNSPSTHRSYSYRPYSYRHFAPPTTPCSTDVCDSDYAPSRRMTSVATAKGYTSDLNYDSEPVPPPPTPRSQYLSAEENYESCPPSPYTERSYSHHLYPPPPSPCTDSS

| Binder | EC50 [1] | IC50 by STF assay for Wnt1 inhibition (human LRP6 (human)) |
| --- | --- | --- |
| MOR06475 Fab (Fab, V domains shown) VH: QVQLKESGPALVKPTQTLTLTCTFSGFSLSNRGGGVGWIRQPPGKALEWLAWIDWDDDKSYSTSLKTRLTISKDTSKNQVVLTMTNMDPVDTATYYCARMHLPLVFDSWGQGTLVTVSS VL: DIVLTQSPATLSLSPGERATLSCRASQFIGSRYLAWYQQKPGQAPRLLIYGASNRATGVPARFSGSGSGTDFTLTISSLEPEDFATYYCQQYYDYPQTFGQGTKVEIK | 0.22 nM |  |
| scFv08168-D7 (scFv, part only; not given: Linker and His tag, V domains shown, not shown: another chain or arm of the molecule; small tags and cut ends) VH: QVQLVESGGGLVQPGGSLRLSCAASGFTFSDYVMNWVRQAPGKGLEWVSGISWSGVNTHYADSVKGRFTISRDNSKNTLYLQMNSLRAEDTAVYYCARLGATANNIRYKFMDVWGQGTLVTVSS VL: DIELTQPPSVSVAPGQTARITCSGDSLRNKVYWYQQKPGQAPVLVIYKNNRPSGIPERFSGSNSGNTATLTISGTQAEDEADYYCQSYDGQKSLVFGGGTKLTVL |  | 4.81 nM |
| scFv08168-D9 (scFv, part only; not given: Linker and His tag, V domains shown, not shown: another chain or arm of the molecule; small tags and cut ends) VH: QVQLVESGGGLVQPGGSLRLSCAASGFTFSDYVMNWVRQAPGKGLEWVSGISWSGVNTHYADSVKGRFTISRDNSKNTLYLQMNSLRAEDTAVYYCARLGATANNIRYKFMDVWGQGTLVTVSS VL: DIELTQPPSVSVAPGQTARISCSGDSLRNKVYWYQQKPGQAPVLVIYKNNRPSGIPERFSVSNSGNTATLTISGTQAEDEADYYCQSYDGQKSLVFGGGTKLTVL |  | 11.1 nM |
| scFv08168-D6 (scFv, part only; not given: Linker and His tag, V domains shown, not shown: another chain or arm of the molecule; small tags and cut ends) VH: QVQLVESGGGLVQPGGSLRLSCAASGFTFSDYVMNWVRQAPGKGLEWISGISWSGVNTHYADSVKGRFTISRDNSKNTLYLQMNSLRAEDTAVYYCARLGATANNIRYKFMDVWGQGTLVTVSS VL: DIELTQPPSVSVAPGQTARISCSGDSLRNKVYWYQQKPGQAPVLVIYKNNRPSGIPERFSGSNSGNTATLTISGTQAEDEADYYCQSYDGQKSLVFGGGTKLTVL |  | 0.74 nM |
| MOR08168 Fab (Fab, V domains shown) VH: QVQLVESGGGLVQPGGSLRLSCAASGFTFSDYVINWVRQAPGKGLEWVSGISWSGVNTHYADSVKGRFTISRDNSKNTLYLQMNSLRAEDTAVYYCARLGATANNIRYKFMDVWGQGTLVTVSS VL: DIELTQPPSVSVAPGQTARISCSGDSLRNKVYWYQQKPGQAPVLVIYKNNRPSGIPERFSGSNSGNTATLTISGTQAEDEADYYCQSYDGQKSLVFGGGTKLTVL | 0.88 nM |  |
| MOR08545 Fab (Fab, V domains shown) VH: QVQLVESGGGLVQPGGSLRLSCAASGFTFSVNGMHWVRQAPGKGLEWVSVIDGMGHTYYADSVKGRFTISRDNSKNTLYLQMNSLRAEDTAVYYCARYDYIKYGAFDPWGQGTLVTVSS VL: DIELTQPPSVSVAPGQTARISCSGDNIGSKYVHWYQQKPGQAPVLVIYGDSNRPSGIPERFSGSNSGNTATLTISGTQAEDEADYYCTRTSTPISGVFGGGTKLTVLG | 0.3 nM |  |
| MOR06706 Fab (Fab, V domains shown) VH: QVQLVESGGGLVQPGGSLRLSCAASGFTFSDYAIHWVRQAPGKGLEWVSGISYSGSSTHYADSVKGRFTISRDNSKNTLYLQMNSLRAEDTAVYYCARGSHGNIMAKRYFDFWGQGTLVTVSS VL: DIELTQPPSVSVAPGQTARISCSGDNIRKKYVYWYQQKPGQAPVLVIYEDSKRPSGIPERFSGSNSGNTATLTISGTQAEDEADYYCSTADSGINNGVFGGGTKLTVL | 0.46 nM |  |
